# Assay results: US20070141048A1 (SYMPHOGEN A S, published 2007)
# Where a chain is given by its changes, count along the chain named.
# T1: Ovalbumin (UniProt P01012 2-386)
# T1 sequence: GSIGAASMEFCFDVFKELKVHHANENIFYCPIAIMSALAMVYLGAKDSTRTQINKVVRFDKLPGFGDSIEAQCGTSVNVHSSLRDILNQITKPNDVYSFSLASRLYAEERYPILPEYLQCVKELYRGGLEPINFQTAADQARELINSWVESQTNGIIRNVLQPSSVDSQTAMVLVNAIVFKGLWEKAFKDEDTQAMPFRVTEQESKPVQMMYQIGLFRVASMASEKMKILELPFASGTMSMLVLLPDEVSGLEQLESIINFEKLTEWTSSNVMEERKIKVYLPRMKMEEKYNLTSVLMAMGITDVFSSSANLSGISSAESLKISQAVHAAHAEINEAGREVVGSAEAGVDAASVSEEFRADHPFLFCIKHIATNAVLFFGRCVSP
# B1: g060g07 (Fab, V domains shown)
# VH: QVQLQQSGPGLVKPSETLPLTCTVSGGSFSTYYWSWIRQSPEKGLEWIGYIQNSVNTNYNPSLKSRVIISVDTSNNQFSLKLRSVTAADTAVYYCARVSGWGPRGGIYFDYWGQGTLVTVS
# VL: DIQMTQSPSSLSASVSDRVTITCRASQSINKFLNWYQQKPGKAPQLLIYAATNLQSGVPSRFSGSGSGTDFTLTISSLQTEDFATYYCQQSYDMPRTFGQGTKVEIK
# B2: g060c03 (Fab, V domains shown)
# VH: KVQLVESGGGLVKPGGSLRLSCAASGSSFSNNNMNWVRQTPGKGLEWVASISFGSHYISYADSVKGRFTISRDNARNAVYLQMNSLRVEDTAVYYCTRCRGGTRTYYYMDVWGKGTLVTVS
# VL: EIVMTQSPGTLALSPGDRATLSCGASQSVFGDFLAWYQHKPGQAPRLLIYGASTRATGIPDRFSGSGAGTDFTLTISRLEPEDFAVYFCQQYGDSVFTFGQGTKLEIK
# B3: g060b12 (Fab, V domains shown)
# VH: B2 VH with K1Q, E6Q, S27F
# VL: B2 VL with M4L, E106G
# B4: g060d08 (Fab, V domains shown)
# VH: B2 VH with S27F, L117M
# VL: B2 VL with E1D, I2V, G51V, K108R
# B5: g060f06 (Fab, V domains shown)
# VH: B2 VH with K1Q, V5Q, E6Q, S27F
# VL: B2 VL with L47P
# B6: g060e05 (Fab, V domains shown)
# VH: QVQLVESGAEVKKPGSSVKVSCKSSGGYVFSWVRQAPGQGLEWMGGIISNFRTAEYARKFQGRVTMTADTSTNTIYMELTSLTSEDTAVYFCVSAPRDTSTIAARFNRYFFDTWGQGTLVTVS
# VL: EIVLTQSPGTLSLSPGERATLSCRASRSVNSNNLAWYQQKPDQAPRLLMYGASSRATGIPDRFTGSGSGTDFTLTISRLEPEDFAVYYCHQYGASDNTFGQGTKLEIK
# B7: g060g09 (Fab, V domains shown)
# VH: B6 VH with Q1K, E6Q, R52H, R58Q
# VL: B6 VL with N30Y
# B8: g060c04 (Fab, V domains shown)
# VH: QMQLVQSGAEVKKPGSSVKVSCQSSGGPPKSYTLSWVRQAPGQGPEWMGGIILIFGPPNYAQKFQDRLTITADKSTNTVYMELSSLRSDDTAMYYCVTAPDDTGTILARHNRYYFDSWGQGTLVTVS
# VL: EIVLTQSPGTLSLSPGQRATLSCRASQSVNRDYLAWYQQKPGQAPRLLIYGASSRATGIPDRFSGSGSGTDFTLTISRLERDDFAVYFCHQYGSSPNTFGQGTKLEIK
# B9: g060b10 (Fab, V domains shown)
# VH: KVQLVESGAEVKKPGATVRVSCKASGYRFNDYCISWVRQAPGQGLEWMGWINGNNADTFYAPKLQGRVTMSTDTSTSTAYMELRNLRSDDTAVYFCARDRGRITLFGEVILRAGWFDSWGQGTLVTVS
# VL: EIVMTQSPSSLSASVGDRVTITCQASQDISKYLNWYQQKPGRAPKLLIYEASNLETGVPPRFSGSGSGTHFTFTITGLQPEDIATYYCQQCDSLPPVFGQGTKLEVK
# B10: g060b06 (Fab, V domains shown)
# VH: QVQLQESGGGVVQPGTSLRLSCVVSGFTFRTYGMNWVRQAPGKVLEWLAFVSSDGSDEFYADSVKGRFTVSRDNSKSTLFLKMNSLRADDTAVYYCARDRGAQITLFGAPLIRPSSFDSWGQGTLVTVS
# VL: EIVLTQSPSSLSASVGDRITITCQASQDITNYLNWYQQKPGKAPKLLIYDASNLQPGVPSRFSGSRSGTDFTFTISSLRPEDIATYYCQQYDGPVLTFGGGTKVEIK
# B11: g060a04 (Fab, V domains shown)
# VH: B10 VH with Q1K, Q5V, V44G, V51L, A88P
# VL: B10 VL with E1D, I2V, L4M, I19V, R66G, G68V
# B12: g060h11 (Fab, V domains shown)
# VH: QVTLKESGPTVVKPTQTLTLTCSLSGFALGTTGVAVGWIRQPPGKALEWLGLIDWNDDRRYRPSLKTRLTITQDMSRNQVVLRLTNLDPLDTGTYFCARSVVPATRAFDFWGQGTLVTVS
# VL: DIQMTQSSSTLSASVGDRVTITCRASQNINIWLAWYQQKAGKAPKLLIYKASTLERGVPSRFSGSGSGTEFTLTITGLRPDDFGSYYCQHYDGNSLTFGQGTRVDIQ
# B13: g060d03 (Fab, V domains shown)
# VH: QMQLVQSGAEVKKPGTSVRVSCKTSGGYVFSWVRQAPGQGPEWMGGIITNFGTTNYAQKFQGRVTITADKSTNTVYMDLSNLTSEDTAVYYCARAPRGTSTIAARFNRYFFDSWGQGTLVTVS
# VL: DIQMTQSPGTLSLSPGERATLSCRASQSVNSDNLAWYQQKPGQAPRLLMSGATSRATDVPDRFSGSGSGTDFTLTISRLEPEDFAVYYCHQYGSSDNTFGQGTKLEIK
# B14: g060f02 (Fab, V domains shown)
# VH: KVQLVQSGAEVKKPGTSVRVSCKTSGGYVFSWVRQAPGHGPEWMGGIITNFGTATYAQKFQGRVSITADTSTNTFYMDLNNLKSDDTAVYYCASAPRDTSTIAARFNRYFFDFWGPGTLVTVS
# VL: B13 VL with I2V, Q3V, D32N, M49V, S54N, V59I, D96E, K108R
# B15: g060b05 (Fab, V domains shown)
# VH: B13 VH with M2V, P14L, S25P, Q58R, V64I, I66V, T83A
# VL: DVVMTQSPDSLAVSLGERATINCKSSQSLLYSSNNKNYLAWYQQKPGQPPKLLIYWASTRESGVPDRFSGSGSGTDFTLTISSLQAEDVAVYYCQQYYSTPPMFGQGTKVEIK
# B16: g060b07 (Fab, V domains shown)
# VH: B13 VH with Q1E, M2V, Q6E, N50S, N55S, S71A, N81D, V89I, R94K
# VL: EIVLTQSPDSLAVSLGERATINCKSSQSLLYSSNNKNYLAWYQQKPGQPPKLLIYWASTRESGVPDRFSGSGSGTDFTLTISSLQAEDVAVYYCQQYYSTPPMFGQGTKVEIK
# B17: g060f04 (Fab, V domains shown)
# VH: B13 VH with Q1K, M2V, S25P, Q58R, V64I, I66V, T83A
# VL: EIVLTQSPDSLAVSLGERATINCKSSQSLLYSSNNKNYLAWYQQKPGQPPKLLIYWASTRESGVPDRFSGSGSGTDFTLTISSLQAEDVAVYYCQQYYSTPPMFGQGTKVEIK
# B18: g060f08 (Fab, V domains shown)
# VH: B13 VH with Q1K, M2V
# VL: B13 VL with I2V, Q3V, V59I
# B19: g060d07 (Fab, V domains shown)
# VH: B13 VH with Q1E, M2V, S25P, Q58R, V64I, I66V, T83A
# VL: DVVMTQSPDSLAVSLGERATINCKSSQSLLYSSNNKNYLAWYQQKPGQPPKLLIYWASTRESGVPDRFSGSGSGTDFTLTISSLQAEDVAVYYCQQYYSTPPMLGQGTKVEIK
# Biological target: T1, Ovalbumin
# Test: ELISA, periplasmic extract on coated Ovalbumin
row,Binder,binding result
1,B1,no binding (tested: 10 µg/ml Ovalbumin coat)
2,B2,no binding (tested: 10 µg/ml Ovalbumin coat)
3,B3,no binding (tested: 10 µg/ml Ovalbumin coat)
4,B4,no binding (tested: 10 µg/ml Ovalbumin coat)
5,B5,no binding (tested: 10 µg/ml Ovalbumin coat)
6,B6,no binding (tested: 10 µg/ml Ovalbumin coat)
7,B7,no binding (tested: 10 µg/ml Ovalbumin coat)
8,B8,no binding (tested: 10 µg/ml Ovalbumin coat)
9,B9,no binding (tested: 10 µg/ml Ovalbumin coat)
10,B10,no binding (tested: 10 µg/ml Ovalbumin coat)
11,B11,no binding (tested: 10 µg/ml Ovalbumin coat)
12,B12,no binding (tested: 10 µg/ml Ovalbumin coat)
13,B13,no binding (tested: 10 µg/ml Ovalbumin coat)
14,B14,no binding (tested: 10 µg/ml Ovalbumin coat)
15,B15,no binding (tested: 10 µg/ml Ovalbumin coat)
16,B16,no binding (tested: 10 µg/ml Ovalbumin coat)
17,B17,no binding (tested: 10 µg/ml Ovalbumin coat)
18,B18,no binding (tested: 10 µg/ml Ovalbumin coat)
19,B19,no binding (tested: 10 µg/ml Ovalbumin coat)
